Data on 1 molecule can be found in publication PMC8892280 (Proceedings of the National Academy of Sciences of the …, 2022).

The target in this test is full-length human LRRK2 (leucine-rich repeat kinase 2) (human, UniProt Q5S007). The test is described as follows: MST.
full-length human LRRK2 (leucine-rich repeat kinase 2), sequence (Q5S007 whole entry): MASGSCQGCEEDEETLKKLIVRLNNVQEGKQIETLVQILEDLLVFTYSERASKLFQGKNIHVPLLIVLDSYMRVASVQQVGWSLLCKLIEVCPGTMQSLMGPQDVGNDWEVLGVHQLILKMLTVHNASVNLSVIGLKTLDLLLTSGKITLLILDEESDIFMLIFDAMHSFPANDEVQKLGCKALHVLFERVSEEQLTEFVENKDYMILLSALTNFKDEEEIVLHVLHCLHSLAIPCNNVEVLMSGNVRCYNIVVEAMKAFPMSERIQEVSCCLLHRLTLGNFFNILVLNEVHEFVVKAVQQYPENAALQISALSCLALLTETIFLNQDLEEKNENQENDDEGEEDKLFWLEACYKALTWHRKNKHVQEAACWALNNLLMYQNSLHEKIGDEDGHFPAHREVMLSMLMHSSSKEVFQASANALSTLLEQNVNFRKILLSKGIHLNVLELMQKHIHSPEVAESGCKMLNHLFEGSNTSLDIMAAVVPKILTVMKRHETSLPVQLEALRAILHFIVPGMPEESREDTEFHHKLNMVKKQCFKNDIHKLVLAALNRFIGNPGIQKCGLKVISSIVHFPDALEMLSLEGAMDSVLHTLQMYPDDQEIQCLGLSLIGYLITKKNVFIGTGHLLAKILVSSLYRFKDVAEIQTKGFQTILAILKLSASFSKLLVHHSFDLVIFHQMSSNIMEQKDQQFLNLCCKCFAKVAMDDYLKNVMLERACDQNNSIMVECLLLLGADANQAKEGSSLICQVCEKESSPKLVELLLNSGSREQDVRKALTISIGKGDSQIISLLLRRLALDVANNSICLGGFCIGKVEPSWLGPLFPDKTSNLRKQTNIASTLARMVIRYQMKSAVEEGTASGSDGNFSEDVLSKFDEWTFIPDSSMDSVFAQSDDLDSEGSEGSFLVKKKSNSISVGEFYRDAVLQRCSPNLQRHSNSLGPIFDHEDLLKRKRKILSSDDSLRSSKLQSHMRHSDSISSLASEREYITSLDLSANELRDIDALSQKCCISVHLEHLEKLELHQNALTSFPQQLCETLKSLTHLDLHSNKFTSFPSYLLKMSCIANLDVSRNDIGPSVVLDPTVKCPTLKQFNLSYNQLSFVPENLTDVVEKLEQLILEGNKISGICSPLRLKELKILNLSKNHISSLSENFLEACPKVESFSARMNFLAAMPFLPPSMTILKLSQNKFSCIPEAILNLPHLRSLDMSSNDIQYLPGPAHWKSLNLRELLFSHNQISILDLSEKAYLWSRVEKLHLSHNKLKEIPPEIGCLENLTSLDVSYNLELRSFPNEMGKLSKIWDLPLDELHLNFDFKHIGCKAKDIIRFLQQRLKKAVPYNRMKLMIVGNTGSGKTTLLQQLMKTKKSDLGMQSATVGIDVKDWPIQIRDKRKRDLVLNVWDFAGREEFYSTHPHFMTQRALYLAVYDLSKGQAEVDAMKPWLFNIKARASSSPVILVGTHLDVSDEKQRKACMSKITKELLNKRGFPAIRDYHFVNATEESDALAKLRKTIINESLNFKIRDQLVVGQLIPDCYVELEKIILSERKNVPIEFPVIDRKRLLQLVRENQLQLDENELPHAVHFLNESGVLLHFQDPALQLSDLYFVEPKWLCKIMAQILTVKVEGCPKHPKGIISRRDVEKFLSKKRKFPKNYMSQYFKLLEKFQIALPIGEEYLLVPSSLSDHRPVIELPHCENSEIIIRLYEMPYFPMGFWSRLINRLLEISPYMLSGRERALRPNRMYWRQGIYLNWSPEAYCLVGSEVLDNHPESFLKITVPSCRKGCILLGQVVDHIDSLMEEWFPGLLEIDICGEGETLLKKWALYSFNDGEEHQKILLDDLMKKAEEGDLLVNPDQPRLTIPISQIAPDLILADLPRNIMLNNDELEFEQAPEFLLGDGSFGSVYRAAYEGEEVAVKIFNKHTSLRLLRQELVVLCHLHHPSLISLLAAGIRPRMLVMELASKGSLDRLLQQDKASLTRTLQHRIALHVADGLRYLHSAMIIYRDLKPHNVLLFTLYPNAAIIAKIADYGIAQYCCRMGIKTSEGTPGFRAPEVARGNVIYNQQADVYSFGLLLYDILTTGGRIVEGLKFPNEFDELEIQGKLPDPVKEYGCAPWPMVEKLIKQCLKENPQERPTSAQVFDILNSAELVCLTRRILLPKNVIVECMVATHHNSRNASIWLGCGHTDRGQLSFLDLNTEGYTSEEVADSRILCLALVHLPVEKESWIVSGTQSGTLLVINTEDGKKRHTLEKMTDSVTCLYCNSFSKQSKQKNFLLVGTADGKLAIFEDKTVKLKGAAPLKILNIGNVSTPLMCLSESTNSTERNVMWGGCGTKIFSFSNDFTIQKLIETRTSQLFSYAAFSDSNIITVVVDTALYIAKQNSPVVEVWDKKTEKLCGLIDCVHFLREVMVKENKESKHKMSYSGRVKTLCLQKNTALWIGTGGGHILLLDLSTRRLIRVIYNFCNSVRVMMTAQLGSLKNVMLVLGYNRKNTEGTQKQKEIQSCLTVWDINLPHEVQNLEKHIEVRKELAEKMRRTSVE

B1: m-TAMRA-labeled Nb42 (VHH)
VHH: QVQLVESGGGLVQAGGSLRLSCAASGDVNYAVGWFRQAPRKEREFVAAINWRGDNTDYTDSVKGRFTISRDNAKNTVYLQMNSLKPEDTAVYYCAAKSAPYWYSDIAPDYWGQGTQVTVSS
The term Kd denotes a measure of binding affinity in units of concentration. In turn, B1 registered a Kd of 94 ± 30 nM.
